The test can be described thus: Heme binding by native and mutant forms of GST-IsdA (electronic spectra, A407/A280). As to conditions: GST-IsdA fusion proteins as expressed and isolated from E. coli; heme scavenged from E. coli cytoplasm; room temperature.

Description: Wild type and point mutant proteins were purified as expressed from E. coli and relative heme binding was assessed based upon the ability of the proteins, all expressed in an equivalent fashion, to scavenge and retain association with heme derived from the cytoplasm of E. coli Proteins were adjusted to an equivalent concentration and electronic spectra were recorded using a Cary 500 spectrophotometer (Varian Inc.) with a 1 cm path length and 1 mL quartz cuvettes. All recordings were taken at room temperature.

B1: IsdA: full length (excluding signal peptide and C-terminal sorting sequences) IsdA, amino acids 48-316, GST fusion expressed in E. coli (protein, listed as Staphylococcus aureus)
chain: TEATNATNNQSTQVSQATSQPINFQVQKDGSSEKSHMDDYMQHPGKVIKQNNKYYFQTVLNNASFWKEYKFYNANNQELATTVVNDNKKADTRTINVAVEPGYKSLTTKVHIVVPQINYNHRYTTHLEFEKAIPTLADAAKPNNVKPVQPKPAQPKTPTEQTKPVQPKVEKVKPTVTTTSKVEDNHSTKVVSTDTTKDQTKTQTAHTVKTAQTAQEQNKVQTPVKDVATAKSESNNQAVSDNKSQQTNKVTKHNETPKQASKAKELPKT
modifications: GST fusion
As for B1, the A407/A280 ratio is listed as 0.629.

The values are drawn from patent US20080050361A1, “STAP[…] […] ANTI-INFECTIVES” (priority 2004, published 2008).
